According to patent publication US20120172293A1 (Takeda / Millennium, published 2012):
Non-standard residues stand in square brackets, D forms with d. tBuAla = CC(C)(C)C[C@H](N)C(=O)O; Cha = N[C@@H](CC1CCCCC1)C(=O)O; Aib = CC(C)(N)C(=O)O

T1: human Y2 receptor (human, UniProt P49146 1-381)
T1 sequence (looked up): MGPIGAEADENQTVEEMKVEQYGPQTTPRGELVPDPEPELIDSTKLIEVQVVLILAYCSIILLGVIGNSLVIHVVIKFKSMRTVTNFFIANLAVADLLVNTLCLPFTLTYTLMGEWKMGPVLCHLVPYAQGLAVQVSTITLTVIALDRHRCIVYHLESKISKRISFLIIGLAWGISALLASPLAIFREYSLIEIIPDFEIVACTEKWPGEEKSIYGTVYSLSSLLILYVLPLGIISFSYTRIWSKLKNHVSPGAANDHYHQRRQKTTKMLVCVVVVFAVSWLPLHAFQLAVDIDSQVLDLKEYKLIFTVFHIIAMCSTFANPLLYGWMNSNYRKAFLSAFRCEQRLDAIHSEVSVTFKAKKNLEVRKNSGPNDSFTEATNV


What was measured:
human Y2 receptor [1] = molecular target: T1, human Y2 receptor; assay: cell-based or functional assay
human Y2 receptor [2] = molecular target: T1, human Y2 receptor; assay: RBA: [125I]-PYY displacement, hY2R/CHO membranes
Method: After incubation at room temperature for 60 minutes, the mixture was filtered through the cell harvester FilterMate (PerkinElmer) using UniFilter-96 GF/C treated with polyethylenimine (PEI) solution (20 mM Tris, 0.3% PEI, pH 7.4), and the filter was washed 3 times with a filtering buffer (50 mM Tris, 5 mM MgCl₂, 150 mM NaCl, 0.03% NaN₃, 0.05% CHAPS, pH 7.4). Thereafter, UniFilter-96 GF/C was dried in a mechanical drier for 1 hour, 15 μl of the liquid scintillator MicroScint O (PerkinElmer) was added to each well, and a measurement was taken using TopCount (PerkinElmer). The data obtained were analyzed using Prism to calculate the IC₅₀ value.

Binder	GBA EC50 Ratio (vs PYY(3-36)), [35S]GTPγS (human Y2 receptor [1]) [ratio]	IC50 Ratio (vs PYY(3-36)) (human Y2 receptor [2]) [ratio]
Ac-N[dP]RH[Cha][Cha]NL[Aib]TRQR[Cha]-NH2 (SMILES CC(=O)N[C@@H](CC(N)=O)C(=O)N1CCC[C@@H]1C(=O)N[C@@H](CCCNC(=N)N)C(=O)N[C@@H](Cc1c[nH]cn1)C(=O)N[C@@H](CC1CCCCC1)C(=O)N[C@@H](CC1CCCCC1)C(=O)N[C@@H](CC(N)=O)C(=O)N[C@@H](CC(C)C)C(=O)NC(C)(C)C(=O)N[C@H](C(=O)N[C@@H](CCCNC(=N)N)C(=O)N[C@@H](CCC(N)=O)C(=O)N[C@@H](CCCNC(=N)N)C(=O)N[C@@H](CC1CCCCC1)C(N)=O)[C@@H](C)O, also called compound No. 115) [Ac-[Asn23, D-Pro24, Cha27,28,36, Aib31]-PYY(23-36)]	1.7	2.4
Ac-E[dP]RH[Cha][Cha]NK[Aib]TRQR[Cha]-NH2 (SMILES CC(=O)N[C@@H](CCC(=O)O)C(=O)N1CCC[C@@H]1C(=O)N[C@@H](CCCNC(=N)N)C(=O)N[C@@H](Cc1c[nH]cn1)C(=O)N[C@@H](CC1CCCCC1)C(=O)N[C@@H](CC1CCCCC1)C(=O)N[C@@H](CC(N)=O)C(=O)N[C@@H](CCCCN)C(=O)NC(C)(C)C(=O)N[C@H](C(=O)N[C@@H](CCCNC(=N)N)C(=O)N[C@@H](CCC(N)=O)C(=O)N[C@@H](CCCNC(=N)N)C(=O)N[C@@H](CC1CCCCC1)C(N)=O)[C@@H](C)O, also called compound No. 137) [Ac-[Glu23, D-Pro24, Cha27,28,36, Lys30, Aib31]-PYY(23-36)]	1.8	3.6
Ac-E[dP]RH[Cha][Aib]NK[Aib]TRQR[Cha]-NH2 (SMILES CC(=O)N[C@@H](CCC(=O)O)C(=O)N1CCC[C@@H]1C(=O)N[C@@H](CCCNC(=N)N)C(=O)N[C@@H](Cc1c[nH]cn1)C(=O)N[C@@H](CC1CCCCC1)C(=O)NC(C)(C)C(=O)N[C@@H](CC(N)=O)C(=O)N[C@@H](CCCCN)C(=O)NC(C)(C)C(=O)N[C@H](C(=O)N[C@@H](CCCNC(=N)N)C(=O)N[C@@H](CCC(N)=O)C(=O)N[C@@H](CCCNC(=N)N)C(=O)N[C@@H](CC1CCCCC1)C(N)=O)[C@@H](C)O, also called compound No. 171) [Ac-[Glu23, D-Pro24, Cha27,36, Aib28,31, Lys30]-PYY(23-36)]	1.6	2.9
Ac-S[dP]RE[Cha][Cha]NL[Aib]TRQR[Cha]-NH2 (SMILES CC(=O)N[C@@H](CO)C(=O)N1CCC[C@@H]1C(=O)N[C@@H](CCCNC(=N)N)C(=O)N[C@@H](CCC(=O)O)C(=O)N[C@@H](CC1CCCCC1)C(=O)N[C@@H](CC1CCCCC1)C(=O)N[C@@H](CC(N)=O)C(=O)N[C@@H](CC(C)C)C(=O)NC(C)(C)C(=O)N[C@H](C(=O)N[C@@H](CCCNC(=N)N)C(=O)N[C@@H](CCC(N)=O)C(=O)N[C@@H](CCCNC(=N)N)C(=O)N[C@@H](CC1CCCCC1)C(N)=O)[C@@H](C)O, also called compound No. 151) [Ac-[D-Pro24, Glu26, Cha27,28,36, Aib31]-PYY(23-36)]	9.5	68
Ac-SGRH[Cha][Cha]NL[Aib]TRQR[Cha]-NH2 (SMILES CC(=O)N[C@@H](CO)C(=O)NCC(=O)N[C@@H](CCCNC(=N)N)C(=O)N[C@@H](Cc1c[nH]cn1)C(=O)N[C@@H](CC1CCCCC1)C(=O)N[C@@H](CC1CCCCC1)C(=O)N[C@@H](CC(N)=O)C(=O)N[C@@H](CC(C)C)C(=O)NC(C)(C)C(=O)N[C@H](C(=O)N[C@@H](CCCNC(=N)N)C(=O)N[C@@H](CCC(N)=O)C(=O)N[C@@H](CCCNC(=N)N)C(=O)N[C@@H](CC1CCCCC1)C(N)=O)[C@@H](C)O, also called compound No. 112) [Ac-[Gly24, Cha27,28,36, Aib31]-PYY(23-36)]	3.9	6.3
Ac-E[dP]RH[Cha][tBuAla]NK[Aib]TRQR[Cha]-NH2 (SMILES CC(=O)N[C@@H](CCC(=O)O)C(=O)N1CCC[C@@H]1C(=O)N[C@@H](CCCNC(=N)N)C(=O)N[C@@H](Cc1c[nH]cn1)C(=O)N[C@@H](CC1CCCCC1)C(=O)N[C@@H](CC(C)(C)C)C(=O)N[C@@H](CC(N)=O)C(=O)N[C@@H](CCCCN)C(=O)NC(C)(C)C(=O)N[C@H](C(=O)N[C@@H](CCCNC(=N)N)C(=O)N[C@@H](CCC(N)=O)C(=O)N[C@@H](CCCNC(=N)N)C(=O)N[C@@H](CC1CCCCC1)C(N)=O)[C@@H](C)O, also called compound No. 168) [Ac-[Glu23, D-Pro24, Cha27,36, Leu(Me)28, Lys30, Aib31]-PYY(23-36)]	1.1	0.73
Ac-S[dP]RT[Cha][Cha]NL[Aib]TRQR[Cha]-NH2 (SMILES CC(=O)N[C@@H](CO)C(=O)N1CCC[C@@H]1C(=O)N[C@@H](CCCNC(=N)N)C(=O)N[C@H](C(=O)N[C@@H](CC1CCCCC1)C(=O)N[C@@H](CC1CCCCC1)C(=O)N[C@@H](CC(N)=O)C(=O)N[C@@H](CC(C)C)C(=O)NC(C)(C)C(=O)N[C@H](C(=O)N[C@@H](CCCNC(=N)N)C(=O)N[C@@H](CCC(N)=O)C(=O)N[C@@H](CCCNC(=N)N)C(=O)N[C@@H](CC1CCCCC1)C(N)=O)[C@@H](C)O)[C@@H](C)O, also called compound No. 147) [Ac-[D-Pro24, Thr26, Cha27,28,36, Aib31]-PYY(23-36)]	2.1	9.3
Ac-S[dP]RH[Cha][tBuAla]NK[Aib]TRQR[Cha]-NH2 (SMILES CC(=O)N[C@@H](CO)C(=O)N1CCC[C@@H]1C(=O)N[C@@H](CCCNC(=N)N)C(=O)N[C@@H](Cc1c[nH]cn1)C(=O)N[C@@H](CC1CCCCC1)C(=O)N[C@@H](CC(C)(C)C)C(=O)N[C@@H](CC(N)=O)C(=O)N[C@@H](CCCCN)C(=O)NC(C)(C)C(=O)N[C@H](C(=O)N[C@@H](CCCNC(=N)N)C(=O)N[C@@H](CCC(N)=O)C(=O)N[C@@H](CCCNC(=N)N)C(=O)N[C@@H](CC1CCCCC1)C(N)=O)[C@@H](C)O, also called compound No. 136) [Ac-[D-Pro24, Cha27,36, Leu(Me)28, Lys30, Aib31]-PYY(23-36)]	0.63	0.57
Ac-S[dP]RH[Cha][Aib]NK[Aib]TRQR[Cha]-NH2 (SMILES CC(=O)N[C@@H](CO)C(=O)N1CCC[C@@H]1C(=O)N[C@@H](CCCNC(=N)N)C(=O)N[C@@H](Cc1c[nH]cn1)C(=O)N[C@@H](CC1CCCCC1)C(=O)NC(C)(C)C(=O)N[C@@H](CC(N)=O)C(=O)N[C@@H](CCCCN)C(=O)NC(C)(C)C(=O)N[C@H](C(=O)N[C@@H](CCCNC(=N)N)C(=O)N[C@@H](CCC(N)=O)C(=O)N[C@@H](CCCNC(=N)N)C(=O)N[C@@H](CC1CCCCC1)C(N)=O)[C@@H](C)O, also called compound No. 135) [Ac-[D-Pro24, Cha27,36, Aib28, Lys30, Aib31]-PYY(23-36)]	0.84	1.9
Ac-[dT][dP]RH[Cha][Cha]NL[Aib]TRQR[Cha]-NH2 (SMILES CC(=O)N[C@@H](C(=O)N1CCC[C@@H]1C(=O)N[C@@H](CCCNC(=N)N)C(=O)N[C@@H](Cc1c[nH]cn1)C(=O)N[C@@H](CC1CCCCC1)C(=O)N[C@@H](CC1CCCCC1)C(=O)N[C@@H](CC(N)=O)C(=O)N[C@@H](CC(C)C)C(=O)NC(C)(C)C(=O)N[C@H](C(=O)N[C@@H](CCCNC(=N)N)C(=O)N[C@@H](CCC(N)=O)C(=O)N[C@@H](CCCNC(=N)N)C(=O)N[C@@H](CC1CCCCC1)C(N)=O)[C@@H](C)O)[C@H](C)O, also called compound No. 158) [Ac-[D-Thr23, D-Pro24, Cha27,28,36, Aib31]-PYY(23-36)]	2.6	7.1
Ac-Y[dP]RH[Cha][Cha]NL[Aib]TRQR[Cha]-NH2 (SMILES CC(=O)N[C@@H](Cc1ccc(O)cc1)C(=O)N1CCC[C@@H]1C(=O)N[C@@H](CCCNC(=N)N)C(=O)N[C@@H](Cc1c[nH]cn1)C(=O)N[C@@H](CC1CCCCC1)C(=O)N[C@@H](CC1CCCCC1)C(=O)N[C@@H](CC(N)=O)C(=O)N[C@@H](CC(C)C)C(=O)NC(C)(C)C(=O)N[C@H](C(=O)N[C@@H](CCCNC(=N)N)C(=O)N[C@@H](CCC(N)=O)C(=O)N[C@@H](CCCNC(=N)N)C(=O)N[C@@H](CC1CCCCC1)C(N)=O)[C@@H](C)O, also called compound No. 162) [Ac-[Tyr23, D-Pro24, Cha27,28,36, Aib31]-PYY(23-36)]	2.6	5.2
Ac-S[dP]RH[Cha][Cha]NT[Aib]TRQR[Cha]-NH2 (SMILES CC(=O)N[C@@H](CO)C(=O)N1CCC[C@@H]1C(=O)N[C@@H](CCCNC(=N)N)C(=O)N[C@@H](Cc1c[nH]cn1)C(=O)N[C@@H](CC1CCCCC1)C(=O)N[C@@H](CC1CCCCC1)C(=O)N[C@@H](CC(N)=O)C(=O)N[C@H](C(=O)NC(C)(C)C(=O)N[C@H](C(=O)N[C@@H](CCCNC(=N)N)C(=O)N[C@@H](CCC(N)=O)C(=O)N[C@@H](CCCNC(=N)N)C(=O)N[C@@H](CC1CCCCC1)C(N)=O)[C@@H](C)O)[C@@H](C)O, also called compound No. 132) [Ac-[D-Pro24, Cha27,28,36, Thr30, Aib31]-PYY(23-36)]	3.1	6.1
